# In the RNAGym collection of RNA variant scans (doi:10.1073/pnas.2313332121):
# Variants at the floor of the assay were thinned out.
# B1: TPR 5TU (parent)
# chain: GGAUCUUCUCGAUCUAACAAAAAAGACAAAUCUGCCACAAAGCUUGAGAGCAUCUUCGGAUGCAGAGGCGGCAGCCUUCGGUGGCGCGAUAGCGCCAACGUUCUCAACUAUGACACGCAAAACGCGUGCUCCGUUGAAUGGAGUUUAUCAUG
# Variants of: B1
# Experiment: polymerase ribozyme fitness, log enrichment relative to wild type (log ratio); higher = more active; in vitro selection for triplet polymerase activity
# Procedure, shortened: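 PCR was used to build mutant libraries for each subunit of a heterodimeric triplet polymerase ribozyme, which were then transcribed. A single in vitro selection round, in triplicate, used a frozen incubation at −7 °C and recovered extended constructs by gel excision, streptavidin beads and RT-PCR. Fitness is the logarithm of genotype enrichment relative to wild-type enrichment, averaged over replicates with inverse-variance weights. The logarithm is base 2, and after Illumina sequencing only genotypes with ≥10 input reads and ≥1 read per output were kept.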
row,Variant,polymerase ribozyme fitness (log ratio)
1,G59C G80A C93A,-3.86
2,U45A C72A G86U C99U,≤ -4.2
3,C5U U55A,0.322
4,A23G A26U C54A U90G A91G,≤ -4.2
5,U7A U9A A98G A121G,≤ -4.2
6,C54U C63G G67C G143A,≤ -4.2
7,C114G G140C G141U,≤ -4.2
8,G84A C85A G86A G92U U101C,≤ -4.2
9,C18G U44G U55G G58C C93A,≤ -4.2
10,A19U A47C C93U,-1.1
11,A49C C69A C79U G83U G94U U104A,≤ -4.2
12,A107G C132U G133U,-3.52
13,A16G A19C G80C C87A A150U,≤ -4.2
14,U82G U101G,0.433
15,A91G U145A,-3.07
16,C54G U55A C108G A122U,≤ -4.2
17,G46A A52G C85A,-2.54
18,A21G A106C,-0.348
19,G48U G50C C85G A98U C99U C149U,≤ -4.2
20,A89U A91U,≤ -4.2
21,U15G A19U A91U,-3.99

row,Variant,polymerase ribozyme fitness (log ratio)
1,G34C A49C A52G U61G C87U C95A,-4.12
2,G74C C118U,-4.02
3,A23G G58U C108G U135G,≤ -4.2
4,G81A A115U A142U,-2.42
5,U44C C85A A91U U127G,≤ -4.2
6,G59C G67A C85A G112U,≤ -4.2
7,G42A U56A C93U,≤ -4.2
8,C63G G83A A98C U104A,-0.841
9,G46A C93U,-1.21
10,A3G C14G A147U,-2.9
11,A19U A24U G46U A49C U82G C99A,≤ -4.2
12,C51U A89G G141U,-0.598
13,G83C C105G G126A,-2.8
14,A3U C5G A19U C36U G83A,-3.1
15,C8U A17C A28G C35U C76A C96U U144G,-3.75
16,A26C C32G C54U C87G C95U,-3.91
17,G59A C93U,-3.33
18,G80C C85U A97C C99A G141U,-3.93
19,G50A C51U G74C U82C G140A U146G,≤ -4.2
20,G11A C51U U55A U56G A142C,-3.56
21,A19G C54G,-1.84

row,Variant,polymerase ribozyme fitness (log ratio)
1,C63A A107C U111C A122G,≤ -4.2
2,C116U U135A,-0.565
3,A19C U56C C96U G133C,-2.22
4,G42U U56A G58A C76U C95G A98G,≤ -4.2
5,A28C U61G G67A C69A C93G A113U G124U,≤ -4.2
6,A26C A29C G65A C87G A97G A142G,≤ -4.2
7,C51G G80U G94U,≤ -4.2
8,A39C G42C C76A U144G,≤ -4.2
9,A106U,-0.23
10,U56G C93U A107G A120U,-4.12
11,G42C A49G A138C,≤ -4.2
12,U31A C54U G83U G94U G124A A142C,-4.09
13,G88C A137U G143A,≤ -4.2
14,U33C G143C,≤ -4.2
15,U4C A47U C85U C105A C116G G143A A147U,≤ -4.2
16,A39C A52G C123G,-2.84
17,C38G A89C C93A C95G U109C,≤ -4.2
18,A40C G48C U56G,-1.94
19,C51U A73G G92U,-0.595
20,C93U G141U,-0.142
21,C32U A39G A40C C54A G94U A142U,≤ -4.2

row,Variant,polymerase ribozyme fitness (log ratio)
1,C14U A47C C54U G84A,-1.86
2,C27U U78A C79G A91C C118G,≤ -4.2
3,A17U G83A C96U C125U C129U,-1.96
4,A26G A30C A39C A47U C76U C93U A97G G133A G140U G141A,-4.02
5,U55A A147C,-1.3
6,A26C A73G C105U U146G,-3.66
7,A41U C76A,-1.99
8,G11U C51U A113U C132A U139G U146A,≤ -4.2
9,G50U C57U G92C,-0.983
10,C10U C32U G68U G74A U78A G92A C125A G140U U145G,≤ -4.2
11,C63U C87G,-4.05
12,C51U A52C U82G U135G,-3.54
13,C38U U61G G92U C116G G140A U144C,≤ -4.2
14,C57U C85G A142C A150G,≤ -4.2
15,U9G C18G A30U C35G C87G A147G,≤ -4.2
16,G70U A122C U144G,-2.06
17,G11U G74U G81U G88C A89G C95U G128U U148A,≤ -4.2
18,U13C U44A U55A G59U G84A A150C,≤ -4.2
19,A19C U56A G94A C99U U135A U148A U151G,≤ -4.2
20,A3U A28C U55G U56G C63G G86C A91C,≤ -4.2
